Biological target: Desulfovibrio vulgaris flagellin (Desulfovibrio vulgaris)
Assay: MST

B1: leucine-rich repeat containing 19 (LRRC19) protein (receptor)
chain: SKREVQCNFTEKNYTLIPADIKKDVTILDLSYNQITLNGTDTRVLQTYFLLTELYLIENKVTILHNNGFGNLSSLEILNICRNSIYVIQQGAFLGLNKLKQLYLCQNKIEQLNADVFVPLRSLKLLNLQGNLISYLDVPPLFHLELITLYGNLWNCSCSLFNLQNWLNTSNVTLENENITMCSYPNSLQSYNIKTVPHKAECHSKFPSSVTEDLYIHFQPISNSIFNSSSNNLTRNSEHEPLGKSW
modifications: NT647 fluorescence dye (in the MST experiments only)
Kd: 1.05 µM
